Experimental data reported in publication PMC7473639, “Functionally distinct roles for T and Tbx6 during mouse development”.

T1: Tbx6-DBD (T-domain) (mouse, UniProt P70327 90-277)
T1 sequence: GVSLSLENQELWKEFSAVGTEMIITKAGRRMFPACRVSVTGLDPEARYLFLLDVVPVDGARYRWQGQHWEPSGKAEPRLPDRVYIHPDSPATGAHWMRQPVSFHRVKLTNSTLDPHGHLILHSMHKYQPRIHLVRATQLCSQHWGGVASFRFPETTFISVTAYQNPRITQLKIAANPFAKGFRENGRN

T2: T-DBD (Brachyury T-domain) (mouse, UniProt P20293 41-224)
T2 sequence: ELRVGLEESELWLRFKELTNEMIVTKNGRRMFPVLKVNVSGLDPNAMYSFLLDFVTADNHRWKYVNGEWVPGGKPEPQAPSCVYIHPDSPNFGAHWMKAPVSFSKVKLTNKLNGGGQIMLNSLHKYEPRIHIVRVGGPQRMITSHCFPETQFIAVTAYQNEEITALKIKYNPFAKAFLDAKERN

B1: Dll1 BS1 (dsDNA)
DNA 1: TCACTGTAGGTGTTGCTGTCCTGT
DNA 2: ACAGGACAGCAACACCTACAGTGA
B2: Dll1 BS2 (dsDNA)
DNA 1: TCCCGAGGTGTGATTCTTGGA
DNA 2: TCCAAGAATCACACCTCGGGA

How the values were obtained:
Tbx6-DBD (T-domain) [1] = target: T1, Tbx6-DBD (T-domain); test: quantitative EMSA; Hill coefficient 2.97; 25 mM HEPES pH 7.4, 75 mM NaCl, 1 mM DTT, 0.25 mM EDTA, 0.1% NP-40, 1 mM MgCl2, 10% glycerol, 10 µg/ml BSA, 0.1 mg/ml poly dI-dC; room temperature, 20 min (1 h); conditions: protein: recombinant; tags: N-terminal His (pET151/D-TOPO); Methods: removed by TEV; label: 32P 5' end label; blunt (annealed; only one strand given)
Tbx6-DBD (T-domain) [2] = target: T1, Tbx6-DBD (T-domain); test: quantitative EMSA; Hill coefficient 3.18; 25 mM HEPES pH 7.4, 75 mM NaCl, 1 mM DTT, 0.25 mM EDTA, 0.1% NP-40, 1 mM MgCl2, 10% glycerol, 10 µg/ml BSA, 0.1 mg/ml poly dI-dC; room temperature, 20 min (1 h); conditions: protein: recombinant; tags: N-terminal His (pET151/D-TOPO); Methods: removed by TEV; label: 32P 5' end label; blunt (annealed; only one strand given)
[3] = target: T2, T-DBD (Brachyury T-domain); test: quantitative EMSA; Hill coefficient 14.42; 25 mM HEPES pH 7.4, 75 mM NaCl, 1 mM DTT, 0.25 mM EDTA, 0.1% NP-40, 1 mM MgCl2, 10% glycerol, 10 µg/ml BSA, 0.1 mg/ml poly dI-dC; room temperature, 20 min (1 h); conditions: protein: recombinant; tags: N-terminal His (pET151/D-TOPO), removed by TEV; chain copies: 2; label: 32P 5' end label; blunt (annealed; only one strand given)

Binder | Kd (Tbx6-DBD (T-domain) [1]) | Kd (Tbx6-DBD (T-domain) [2]) | Kd [3]
B1 | 1530 nM | – | –
B2 | – | 1300 nM | 13900 nM
